Columns and labels:
[1] = molecular target: human GPRC5D (human) (UniProt Q9NZD1); assay: flow cytometry on human GPRC5D-CHOK1 cells (negative control)
[2] = molecular target: human GPRC5D (human) (UniProt Q9NZD1); assay: flow cytometry on NCI-H929 cells (negative control)
[3] = molecular target: cynomolgus monkey GPRC5D (cynomolgus monkey); assay: flow cytometry on cynomolgus monkey GPRC5D-CHOK1 cells (negative control)
[4] = molecular target: human GPRC5D (human) (UniProt Q9NZD1); assay: flow cytometry on human GPRC5D-CHOK1 cells (negative control); remark: listed apart in the source

Sequence of human GPRC5D (human) (Q9NZD1 whole entry): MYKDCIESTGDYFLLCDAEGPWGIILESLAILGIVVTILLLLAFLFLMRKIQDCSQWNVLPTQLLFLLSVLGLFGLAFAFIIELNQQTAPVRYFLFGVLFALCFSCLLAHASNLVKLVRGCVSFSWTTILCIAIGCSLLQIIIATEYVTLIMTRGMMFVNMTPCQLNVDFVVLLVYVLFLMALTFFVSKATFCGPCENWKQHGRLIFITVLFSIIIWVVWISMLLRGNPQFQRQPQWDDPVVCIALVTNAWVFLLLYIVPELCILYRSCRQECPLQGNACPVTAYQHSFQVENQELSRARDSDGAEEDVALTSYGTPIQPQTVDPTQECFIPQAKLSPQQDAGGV

Top mean fluorescence intensity (Top MFI) [1]: 51 MFI
Top mean fluorescence intensity (Top MFI) [2]: 165 MFI
Top mean fluorescence intensity (Top MFI) [3]: 2040 MFI
Top mean fluorescence intensity (Top MFI) [4]: 1610 MFI
Substance: IgG1 AA (negative control, purchased from Biointron, Cat. No. B109802) (antibody)

Source: patent EP4714974A1
